The RNAGym collection of RNA variant scans (doi:10.1093/molbev/msab373)

B1: Azoarcus group I ribozyme (parent)
chain: GUGCCUUGCGCCGGGAAACCACGCAAGGGAUGGUGUCAAAUUCGGCGAAACCUAAGCGCCCGCCCGGGCGUAUGGCAACGCCGAGCCAAGCUUCGGCGCCUGCGCCGAUGAAGGUGUAGAGACUAGACGGCACCCACCUAAGGCAAACGCUAUGGUGAAGGCAUAGUCCAGGGAGUGGCGAAAGUCACACAAACCGG

Variants of: B1
Assay: reverse-splicing fitness (ratio to wild type); higher = more active; in vitro selection; Mg2+ level not given
Procedure, shortened: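 An in vitro group I ribozyme library with randomized positions was T7-transcribed and gel-purified. In triplicate, 10 pmol RNA in EPPS pH 7.5 was reacted with 50 pmoles of a 30-nt RNA substrate for 1 h at 37 °C across several added MgCl2 levels (1–48 mM), then stopped with EDTA. Products were reverse transcribed from a substrate-complementary primer, PCR-amplified and sequenced (HiSeq 4000). Fitness is a variant's read proportion after selection over that before, normalised to wild type.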
C82G A111U A120G C169G U176A showed a reverse-splicing fitness of 0.0187.
C82G A111U A120G C169G U176C gave a reverse-splicing fitness of 0.0225.
For C82G A111U A120G C169G U176G, the reverse-splicing fitness was 0.00448.
With C82G A111U A120G C169A U176G the reverse-splicing fitness was 0.00437.
C82G A111U A120G C169A U176C gave a reverse-splicing fitness of 0.0215.
With C82G A111U A120G C169A U176A the reverse-splicing fitness was 0.017.
In the case of C82G A111U A120G A145G C150U, the reverse-splicing fitness is reported as 0.0139.
For C82G A111U A120G A145G C150G, the reverse-splicing fitness was 0.00786.
In the case of C82G A111U A120G A145G C150A, the reverse-splicing fitness is reported as 0.00899.
C82G A111U A120G A145G C150A C169U showed a reverse-splicing fitness of 0.00945.
C82G A111U A120G A145G C150A C169G gave a reverse-splicing fitness of 0.00903.
C82G A111U A120G A145G C150A C169A showed a reverse-splicing fitness of 0.0109.
For C82G A111U A120G A145G C150U U176C, the reverse-splicing fitness was 0.0167.
Variant C82G A111U A120G A145G C150U U176G has a reverse-splicing fitness of 0.00777.
C82G A111U A120G A145G C150U U176A gave a reverse-splicing fitness of 0.00946.
For C82G A111U A120G A145C C150A, the reverse-splicing fitness was 0.00696.
C82G A111U A120G A145C C150U showed a reverse-splicing fitness of 0.00849.
With C82G A111U A120G A145C C150G the reverse-splicing fitness was 0.00659.
In the case of C82G A111U A120G A145U C150U U176A, the reverse-splicing fitness is reported as 0.0118.
C82G A111U A120G A145U C150U U176G showed a reverse-splicing fitness of 0.00663.
C82G A111U A120G A145U C150U U176C showed a reverse-splicing fitness of 0.0175.
For C82G A111U A120G A145U U176C, the reverse-splicing fitness was 0.0193.
With C82G A111U A120G A145U U176A the reverse-splicing fitness was 0.0138.
C82G A111U A120G A145U U176G gave a reverse-splicing fitness of 0.00635.
Variant C82G A111U A120G A145C C150A C169G U176G has a reverse-splicing fitness of 0.00516.
For C82G A111U A120G A145C C150A C169G U176A, the reverse-splicing fitness was 0.0229.
With C82G A111U A120G A145C C150A C169G U176C the reverse-splicing fitness was 0.0144.
Variant C82G A111U A120G A145U C169G has a reverse-splicing fitness of 0.0137.
C82G A111U A120G A145U C169A gave a reverse-splicing fitness of 0.00825.
C82G A111U A120G A145U C169U showed a reverse-splicing fitness of 0.01.
C82G A111U A120G A145G C150G U176G showed a reverse-splicing fitness of 0.00601.
In the case of C82G A111U A120G A145G C150G U176A, the reverse-splicing fitness is reported as 0.00727.
C82G A111U A120G A145G C150G U176C gave a reverse-splicing fitness of 0.0109.
With C82G A111U A120G C169U the reverse-splicing fitness was 0.0106.
Variant C82G A111U A120G C169A has a reverse-splicing fitness of 0.00993.
For C82G A111U A120G C169G, the reverse-splicing fitness was 0.014.
For C82G A111U A120G C150G, the reverse-splicing fitness was 0.00634.
Work on C82G A111U A120G C150U yielded a reverse-splicing fitness of 0.0127.
Variant C82G A111U A120G C150A has a reverse-splicing fitness of 0.00998.
Variant C82G A111U A120G A145C C169U U176A has a reverse-splicing fitness of 0.0203.
Work on C82G A111U A120G A145C C169U U176C yielded a reverse-splicing fitness of 0.0168.
In the case of C82G A111U A120G A145C C169U U176G, the reverse-splicing fitness is reported as 0.00479.
Variant C82G A111U A120G A145G C169G U176A has a reverse-splicing fitness of 0.0166.
C82G A111U A120G A145G C169G U176G showed a reverse-splicing fitness of 0.00429.
C82G A111U A120G A145G C169G U176C showed a reverse-splicing fitness of 0.0235.
For C82G A111U A120G C150G C169A, the reverse-splicing fitness was 0.00883.
C82G A111U A120G C150G C169U showed a reverse-splicing fitness of 0.00861.
With C82G A111U A120G C150G C169G the reverse-splicing fitness was 0.00797.
Variant C82G A111U A120G C150U U176A has a reverse-splicing fitness of 0.0111.
With C82G A111U A120G C150U U176G the reverse-splicing fitness was 0.011.
Variant C82G A111U A120G C150U U176C has a reverse-splicing fitness of 0.0178.
With C82G A111U A120C C169A U176A the reverse-splicing fitness was 0.0193.
C82G A111U A120C C169A U176G gave a reverse-splicing fitness of 0.00684.
Variant C82G A111U A120C C169A U176C has a reverse-splicing fitness of 0.0224.
Variant C82G A111U A120G C169U U176A has a reverse-splicing fitness of 0.0197.
C82G A111U A120G C169U U176C gave a reverse-splicing fitness of 0.0179.
In the case of C82G A111U A120G C169U U176G, the reverse-splicing fitness is reported as 0.00589.
C82G A111U A120G gave a reverse-splicing fitness of 0.0168.
In the case of C82G A111U A120U, the reverse-splicing fitness is reported as 0.0462.
Variant C82G A111U A120G U176A has a reverse-splicing fitness of 0.0148.
Work on C82G A111U A120G U176G yielded a reverse-splicing fitness of 0.00905.
Variant C82G A111U A120G U176C has a reverse-splicing fitness of 0.0216.
Work on C82G A111U A120U A145C C150G C169U U176G yielded a reverse-splicing fitness of 0.00252.
With C82G A111U A120U A145C C150G C169U U176A the reverse-splicing fitness was 0.00273.
For C82G A111U A120U A145C C150G C169U U176C, the reverse-splicing fitness was 0.00279.
Work on C82G A111U A120G A145G C150A U176A yielded a reverse-splicing fitness of 0.011.
For C82G A111U A120G A145G C150A U176C, the reverse-splicing fitness was 0.0219.
Work on C82G A111U A120G A145G C150A U176G yielded a reverse-splicing fitness of 0.00873.
In the case of C82G A111U A120G A145U C150A C169G U176A, the reverse-splicing fitness is reported as 0.0162.
Work on C82G A111U A120G A145U C150A C169G U176G yielded a reverse-splicing fitness of 0.00501.
C82G A111U A120G A145U C150A C169G U176C gave a reverse-splicing fitness of 0.0163.
In the case of C82G A111U A120G A145G C150U C169A U176A, the reverse-splicing fitness is reported as 0.0158.
C82G A111U A120G A145G C150U C169A U176G gave a reverse-splicing fitness of 0.00683.
In the case of C82G A111U A120G A145G C150U C169A U176C, the reverse-splicing fitness is reported as 0.0145.
Work on C82G A111U A120G A145C C150G U176G yielded a reverse-splicing fitness of 0.00342.
Work on C82G A111U A120G A145C C150G U176A yielded a reverse-splicing fitness of 0.0058.
In the case of C82G A111U A120G A145C C150G U176C, the reverse-splicing fitness is reported as 0.0105.
Work on C82G A111U A120G A145G C169U U176G yielded a reverse-splicing fitness of 0.00501.
Variant C82G A111U A120G A145G C169U U176C has a reverse-splicing fitness of 0.0161.
In the case of C82G A111U A120G A145G C169U U176A, the reverse-splicing fitness is reported as 0.0198.
With C82G A111U A120G A145U C150U C169G the reverse-splicing fitness was 0.0123.
C82G A111U A120G A145U C150U C169A showed a reverse-splicing fitness of 0.0117.
Variant C82G A111U A120G A145U C150U C169U has a reverse-splicing fitness of 0.00944.
